Starred links: 1 amine or outer side, 2 acyl side, 3 side chain; linkers in the order of their positions; H or OH if unused. Non-standard residues stand in square brackets, D forms with d. Groups on a side chain read outwards from the residue. No end group written: not given here. *: point of attachment. C20 diacid = O=C(O)CCCCCCCCCCCCCCCCCCC(=O)*; C19 diacid = O=C(O)CCCCCCCCCCCCCCCCCC(=O)*; C18 diacid = O=C(O)CCCCCCCCCCCCCCCCC(=O)*; γGlu = O=C(O)[C@H](CCC(=O)[*:2])N[*:1]; hSer = N[C@@H](CCO)C(=O)O; αMeS = C[C@](N)(CO)C(=O)O
T1: NPY2R
T1 sequence (P49146 1-381, species assumed, looked up): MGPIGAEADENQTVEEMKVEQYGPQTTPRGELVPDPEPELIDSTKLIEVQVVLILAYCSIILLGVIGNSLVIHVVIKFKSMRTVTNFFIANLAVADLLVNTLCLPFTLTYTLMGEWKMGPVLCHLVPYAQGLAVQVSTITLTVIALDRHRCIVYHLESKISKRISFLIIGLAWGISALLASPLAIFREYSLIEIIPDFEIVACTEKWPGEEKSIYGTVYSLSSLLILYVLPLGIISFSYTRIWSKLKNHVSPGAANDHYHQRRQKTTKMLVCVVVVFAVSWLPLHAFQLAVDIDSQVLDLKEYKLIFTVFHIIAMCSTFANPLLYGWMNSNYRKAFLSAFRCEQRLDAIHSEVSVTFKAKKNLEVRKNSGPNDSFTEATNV

T2: NPY5R
T2 sequence (Q15761 1-445, species assumed, looked up): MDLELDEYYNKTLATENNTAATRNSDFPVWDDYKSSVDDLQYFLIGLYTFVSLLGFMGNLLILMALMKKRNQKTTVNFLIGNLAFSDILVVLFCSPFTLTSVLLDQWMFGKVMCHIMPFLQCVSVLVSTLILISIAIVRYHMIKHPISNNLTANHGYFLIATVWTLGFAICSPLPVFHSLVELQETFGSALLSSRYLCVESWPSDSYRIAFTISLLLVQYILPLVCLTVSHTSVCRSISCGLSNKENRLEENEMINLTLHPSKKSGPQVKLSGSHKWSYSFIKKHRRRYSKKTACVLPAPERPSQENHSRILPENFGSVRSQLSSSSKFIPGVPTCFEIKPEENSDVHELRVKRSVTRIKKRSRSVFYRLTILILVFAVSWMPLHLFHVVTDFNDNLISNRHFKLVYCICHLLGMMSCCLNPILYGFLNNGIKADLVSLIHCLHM

B1: Compound A14 (peptide)
peptide: PKPEAPGKDASPEEWNRYY[dK]([γGlu-γGlu-C20 diacid])DLRHYLNWLTRQRF-NH2
modifications: N-terminus assumed
SMILES: CC(C)C[C@H](NC(=O)[C@H](Cc1ccc(O)cc1)NC(=O)[C@H](Cc1c[nH]cn1)NC(=O)[C@H](CCCNC(=N)N)NC(=O)[C@H](CC(C)C)NC(=O)[C@H](CC(=O)O)NC(=O)[C@@H](CCCCNC(=O)CC[C@H](NC(=O)CC[C@H](NC(=O)CCCCCCCCCCCCCCCCCCC(=O)O)C(=O)O)C(=O)O)NC(=O)[C@H](Cc1ccc(O)cc1)NC(=O)[C@H](Cc1ccc(O)cc1)NC(=O)[C@H](CCCNC(=N)N)NC(=O)[C@H](CC(N)=O)NC(=O)[C@H](Cc1c[nH]c2ccccc12)NC(=O)[C@H](CCC(=O)O)NC(=O)[C@H](CCC(=O)O)NC(=O)[C@@H]1CCCN1C(=O)[C@H](CO)NC(=O)[C@H](C)NC(=O)[C@H](CC(=O)O)NC(=O)[C@H](CCCCN)NC(=O)CNC(=O)[C@@H]1CCCN1C(=O)[C@H](C)NC(=O)[C@H](CCC(=O)O)NC(=O)[C@@H]1CCCN1C(=O)[C@H](CCCCN)NC(=O)[C@@H]1CCCN1)C(=O)N[C@@H](CC(N)=O)C(=O)N[C@@H](Cc1c[nH]c2ccccc12)C(=O)N[C@@H](CC(C)C)C(=O)N[C@H](C(=O)N[C@@H](CCCNC(=N)N)C(=O)N[C@@H](CCC(N)=O)C(=O)N[C@@H](CCCNC(=N)N)C(=O)N[C@@H](Cc1ccccc1)C(N)=O)[C@@H](C)O
B2: Compound A29 (peptide)
peptide: PKPEKPGEDASPKEWNRYYK([γGlu-γGlu-C20 diacid])DLRHYLNWLTRQRF-NH2
modifications: N-terminus assumed
SMILES: CC(C)C[C@H](NC(=O)[C@H](CC(=O)O)NC(=O)[C@H](CCCCNC(=O)CC[C@H](NC(=O)CC[C@H](NC(=O)CCCCCCCCCCCCCCCCCCC(=O)O)C(=O)O)C(=O)O)NC(=O)[C@H](Cc1ccc(O)cc1)NC(=O)[C@H](Cc1ccc(O)cc1)NC(=O)[C@H](CCCNC(=N)N)NC(=O)[C@H](CC(N)=O)NC(=O)[C@H](Cc1c[nH]c2ccccc12)NC(=O)[C@H](CCC(=O)O)NC(=O)[C@H](CCCCN)NC(=O)[C@@H]1CCCN1C(=O)[C@H](CO)NC(=O)[C@H](C)NC(=O)[C@H](CC(=O)O)NC(=O)[C@H](CCC(=O)O)NC(=O)CNC(=O)[C@@H]1CCCN1C(=O)[C@H](CCCCN)NC(=O)[C@H](CCC(=O)O)NC(=O)[C@@H]1CCCN1C(=O)[C@H](CCCCN)NC(=O)[C@@H]1CCCN1)C(=O)N[C@@H](CCCNC(=N)N)C(=O)N[C@@H](Cc1c[nH]cn1)C(=O)N[C@@H](Cc1ccc(O)cc1)C(=O)N[C@@H](CC(C)C)C(=O)N[C@@H](CC(N)=O)C(=O)N[C@@H](Cc1c[nH]c2ccccc12)C(=O)N[C@@H](CC(C)C)C(=O)N[C@H](C(=O)N[C@@H](CCCNC(=N)N)C(=O)N[C@@H](CCC(N)=O)C(=O)N[C@@H](CCCNC(=N)N)C(=O)N[C@@H](Cc1ccccc1)C(N)=O)[C@@H](C)O
B3: Compound A34 (peptide)
peptide: PKPEKPGEDASPKEWDRYYK([γGlu-γGlu-C20 diacid])DLRHYLNWLTRQRF-NH2
modifications: N-terminus assumed
SMILES: CC(C)C[C@H](NC(=O)[C@H](CC(=O)O)NC(=O)[C@H](CCCCNC(=O)CC[C@H](NC(=O)CC[C@H](NC(=O)CCCCCCCCCCCCCCCCCCC(=O)O)C(=O)O)C(=O)O)NC(=O)[C@H](Cc1ccc(O)cc1)NC(=O)[C@H](Cc1ccc(O)cc1)NC(=O)[C@H](CCCNC(=N)N)NC(=O)[C@H](CC(=O)O)NC(=O)[C@H](Cc1c[nH]c2ccccc12)NC(=O)[C@H](CCC(=O)O)NC(=O)[C@H](CCCCN)NC(=O)[C@@H]1CCCN1C(=O)[C@H](CO)NC(=O)[C@H](C)NC(=O)[C@H](CC(=O)O)NC(=O)[C@H](CCC(=O)O)NC(=O)CNC(=O)[C@@H]1CCCN1C(=O)[C@H](CCCCN)NC(=O)[C@H](CCC(=O)O)NC(=O)[C@@H]1CCCN1C(=O)[C@H](CCCCN)NC(=O)[C@@H]1CCCN1)C(=O)N[C@@H](CCCNC(=N)N)C(=O)N[C@@H](Cc1c[nH]cn1)C(=O)N[C@@H](Cc1ccc(O)cc1)C(=O)N[C@@H](CC(C)C)C(=O)N[C@@H](CC(N)=O)C(=O)N[C@@H](Cc1c[nH]c2ccccc12)C(=O)N[C@@H](CC(C)C)C(=O)N[C@H](C(=O)N[C@@H](CCCNC(=N)N)C(=O)N[C@@H](CCC(N)=O)C(=O)N[C@@H](CCCNC(=N)N)C(=O)N[C@@H](Cc1ccccc1)C(N)=O)[C@@H](C)O
B4: Compound A35 (peptide)
peptide: PKPEK([γGlu-γGlu-C18 diacid])PGEDASPKEWDRYYKDLRHYLNWLTRQRF-NH2
modifications: N-terminus assumed
SMILES: CC(C)C[C@H](NC(=O)[C@H](CC(=O)O)NC(=O)[C@H](CCCCN)NC(=O)[C@H](Cc1ccc(O)cc1)NC(=O)[C@H](Cc1ccc(O)cc1)NC(=O)[C@H](CCCNC(=N)N)NC(=O)[C@H](CC(=O)O)NC(=O)[C@H](Cc1c[nH]c2ccccc12)NC(=O)[C@H](CCC(=O)O)NC(=O)[C@H](CCCCN)NC(=O)[C@@H]1CCCN1C(=O)[C@H](CO)NC(=O)[C@H](C)NC(=O)[C@H](CC(=O)O)NC(=O)[C@H](CCC(=O)O)NC(=O)CNC(=O)[C@@H]1CCCN1C(=O)[C@H](CCCCNC(=O)CC[C@H](NC(=O)CC[C@H](NC(=O)CCCCCCCCCCCCCCCCC(=O)O)C(=O)O)C(=O)O)NC(=O)[C@H](CCC(=O)O)NC(=O)[C@@H]1CCCN1C(=O)[C@H](CCCCN)NC(=O)[C@@H]1CCCN1)C(=O)N[C@@H](CCCNC(=N)N)C(=O)N[C@@H](Cc1c[nH]cn1)C(=O)N[C@@H](Cc1ccc(O)cc1)C(=O)N[C@@H](CC(C)C)C(=O)N[C@@H](CC(N)=O)C(=O)N[C@@H](Cc1c[nH]c2ccccc12)C(=O)N[C@@H](CC(C)C)C(=O)N[C@H](C(=O)N[C@@H](CCCNC(=N)N)C(=O)N[C@@H](CCC(N)=O)C(=O)N[C@@H](CCCNC(=N)N)C(=O)N[C@@H](Cc1ccccc1)C(N)=O)[C@@H](C)O
B5: Compound A36 (peptide)
peptide: PKPEK([γGlu-γGlu-C19 diacid])PGEDASPKEWNRYYKDLRHYLNWLTRQRF-NH2
modifications: N-terminus assumed
SMILES: CC(C)C[C@H](NC(=O)[C@H](CC(=O)O)NC(=O)[C@H](CCCCN)NC(=O)[C@H](Cc1ccc(O)cc1)NC(=O)[C@H](Cc1ccc(O)cc1)NC(=O)[C@H](CCCNC(=N)N)NC(=O)[C@H](CC(N)=O)NC(=O)[C@H](Cc1c[nH]c2ccccc12)NC(=O)[C@H](CCC(=O)O)NC(=O)[C@H](CCCCN)NC(=O)[C@@H]1CCCN1C(=O)[C@H](CO)NC(=O)[C@H](C)NC(=O)[C@H](CC(=O)O)NC(=O)[C@H](CCC(=O)O)NC(=O)CNC(=O)[C@@H]1CCCN1C(=O)[C@H](CCCCNC(=O)CC[C@H](NC(=O)CC[C@H](NC(=O)CCCCCCCCCCCCCCCCCC(=O)O)C(=O)O)C(=O)O)NC(=O)[C@H](CCC(=O)O)NC(=O)[C@@H]1CCCN1C(=O)[C@H](CCCCN)NC(=O)[C@@H]1CCCN1)C(=O)N[C@@H](CCCNC(=N)N)C(=O)N[C@@H](Cc1c[nH]cn1)C(=O)N[C@@H](Cc1ccc(O)cc1)C(=O)N[C@@H](CC(C)C)C(=O)N[C@@H](CC(N)=O)C(=O)N[C@@H](Cc1c[nH]c2ccccc12)C(=O)N[C@@H](CC(C)C)C(=O)N[C@H](C(=O)N[C@@H](CCCNC(=N)N)C(=O)N[C@@H](CCC(N)=O)C(=O)N[C@@H](CCCNC(=N)N)C(=O)N[C@@H](Cc1ccccc1)C(N)=O)[C@@H](C)O

Molecular target: NPY1R
Sequence (P25929 whole entry): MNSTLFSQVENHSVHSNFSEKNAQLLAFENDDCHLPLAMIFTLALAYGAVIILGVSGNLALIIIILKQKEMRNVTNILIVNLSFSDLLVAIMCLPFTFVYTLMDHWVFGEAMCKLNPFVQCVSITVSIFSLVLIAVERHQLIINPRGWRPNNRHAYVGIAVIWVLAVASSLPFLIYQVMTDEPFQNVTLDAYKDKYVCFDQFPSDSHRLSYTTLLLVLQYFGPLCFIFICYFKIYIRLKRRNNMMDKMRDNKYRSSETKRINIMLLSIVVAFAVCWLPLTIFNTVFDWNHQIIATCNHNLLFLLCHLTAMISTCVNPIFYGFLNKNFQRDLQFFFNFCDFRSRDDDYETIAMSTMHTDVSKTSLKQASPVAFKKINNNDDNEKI
Test: cell-based or functional assay

With B1 the “NPY1R pEC50” value was 8.5 -Log(EC50, M).

Molecular target: T1, NPY2R
Test: cell-based or functional assay

Point of comparison: B4, “NPY2R pEC50” value 10.5 -Log(EC50, M). Against it:
- B2 — higher, 10.9 -Log(EC50, M)
- PKPEAPGK([γGlu-γGlu-C20 diacid])DASPEEW[hSer]RYYKDLRHYLNWLTRQRF-NH2 [Compound A30] — lower, 10.3 -Log(EC50, M)
- PKPEAPGK([γGlu-γGlu-C20 diacid])DASPEEW[αMeS]RYYKDLRHYLNWLTRQRF-NH2 [Compound A31] — lower, 10.4 -Log(EC50, M)
- PKPEAPGK([γGlu-γGlu-C18 diacid])DASPEEWDRYYKDLRHYLNWLTRQRF-NH2 [Compound A32] — higher, 10.8 -Log(EC50, M)
- PKPEAPGK([γGlu-γGlu-C19 diacid])DASPEEWDRYYKDLRHYLNWLTRQRF-NH2 [Compound A33] — lower, 10.4 -Log(EC50, M)
- B3 — lower, 10.2 -Log(EC50, M)
- B5 — higher, 10.9 -Log(EC50, M)

Molecular target: T2, NPY5R
Test: cell-based or functional assay

Point of comparison: PKPEAPGK([γGlu-γGlu-C19 diacid])DASPEEWDRYYKDLRHYLNWLTRQRF-NH2 [Compound A33], “NPY5R pEC50” value 8.9 -Log(EC50, M). Against it:
- B1 — lower, 8.3 -Log(EC50, M)
- B2 — higher, 9 -Log(EC50, M)
- PKPEAPGK([γGlu-γGlu-C20 diacid])DASPEEW[hSer]RYYKDLRHYLNWLTRQRF-NH2 [Compound A30] — lower, 8.5 -Log(EC50, M)
- PKPEAPGK([γGlu-γGlu-C20 diacid])DASPEEW[αMeS]RYYKDLRHYLNWLTRQRF-NH2 [Compound A31] — lower, 8.7 -Log(EC50, M)
- PKPEAPGK([γGlu-γGlu-C18 diacid])DASPEEWDRYYKDLRHYLNWLTRQRF-NH2 [Compound A32] — higher, 9 -Log(EC50, M)
- B3 — lower, 8.8 -Log(EC50, M)
- B4 — higher, 9.1 -Log(EC50, M)
- B5 — lower, 8.7 -Log(EC50, M)

Source: patent US20250084142A1 (INTARCIA THERAPEUTICS, published 2025)
